The text below walks through data of the supplement of paper PMC9112550, “Optimization of the antimicrobial peptide Bac7 by deep mutational scanning” (BMC Biology, 2022).
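Note: peptides expressed intracellularly from a pBAD plasmid library in pooled LB shake-flask culture, induced with 0.3% L-arabinose, DNA abundance read by NGS, three biological replicates, DESeq2 with apeglm shrinkage.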

This data set has as its system Escherichia coli TOP10. In words: shrunken log2 fold change of peptide-encoding DNA abundance (4.5 h post-induction vs induction); higher = less antimicrobial activity (less host growth inhibition). The settings on record: time post-induction: 4.5 h; library: site-saturation at positions 5, 18, 19, 20.
Regarding RRIRCRPPRLPRPRPRPIDRPRP, the “shrunken log2 fold change” value is -0.0643. As for RRIRDRPPRLPRPRPRPRGAPRP, the “shrunken log2 fold change” value was found to be 0.772. Regarding RRIRERPPRLPRPRPRPEAIPRP, the “shrunken log2 fold change” value was -0.0664. For the sequence RRIRYRPPRLPRPRPRPPVRPRP, the “shrunken log2 fold change” value was 0.0631.

As to RRIRSRPPRLPRPRPRPICTPRP, the “shrunken log2 fold change” value stood at 0.166.

With RRIRIRPPRLPRPRPRPVGMPRP, the “shrunken log2 fold change” value was found to be 0.0752.

RRIRCRPPRLPRPRPRPCDIPRP: the “shrunken log2 fold change” value was -0.0278. To RRIRIRPPRLPRPRPRPNPTPRP belongs -0.17; to RRIRTRPPRLPRPRPRPGPRPRP, 0.716.

In the case of RRIRQRPPRLPRPRPRPNFHPRP, the “shrunken log2 fold change” value is -0.232. Take RRIRLRPPRLPRPRPRPFCTPRP: the “shrunken log2 fold change” value was -0.105. Regarding RRIRWRPPRLPRPRPRPQWQPRP, the “shrunken log2 fold change” value came out at 0.0209. In the case of RRIRQRPPRLPRPRPRPKCGPRP, the “shrunken log2 fold change” value came out at 0.354. For RRIRRRPPRLPRPRPRPNECPRP, the “shrunken log2 fold change” value stood at 0.0616.

Regarding RRIRHRPPRLPRPRPRPHLLPRP, the “shrunken log2 fold change” value is -0.286. For the sequence RRIRPRPPRLPRPRPRPNCHPRP, the “shrunken log2 fold change” value worked out at 0.0382. RRIRDRPPRLPRPRPRPIAQPRP: the “shrunken log2 fold change” value was -0.0679.

With RRIRDRPPRLPRPRPRPHRPPRP, the “shrunken log2 fold change” value was 0.0369. Take RRIRQRPPRLPRPRPRPKWVPRP: the “shrunken log2 fold change” value amounted to 0.0809. As for RRIRCRPPRLPRPRPRPHISPRP, the “shrunken log2 fold change” value was -0.535. On to RRIRVRPPRLPRPRPRPRMHPRP, for which the “shrunken log2 fold change” value is 0.151. As for RRIRWRPPRLPRPRPRPKTKPRP, the figure is 0.101; as for RRIRFRPPRLPRPRPRPQEVPRP, 0.0758. Regarding RRIRVRPPRLPRPRPRPNEFPRP, the “shrunken log2 fold change” value is -0.00739. To RRIRIRPPRLPRPRPRPMFIPRP belongs -0.454. As for RRIRPRPPRLPRPRPRPDHAPRP, the figure is 0.218; as for RRIRPRPPRLPRPRPRPCYFPRP, -0.0997; as for RRIRPRPPRLPRPRPRPQMWPRP, 0.0355. On to RRIRERPPRLPRPRPRPKMAPRP, for which the “shrunken log2 fold change” value was found to be 2.39. On to RRIRHRPPRLPRPRPRPNALPRP, for which the “shrunken log2 fold change” value worked out at 0.0224.

With RRIRHRPPRLPRPRPRPMNIPRP, the “shrunken log2 fold change” value is -0.214. Consider RRIRSRPPRLPRPRPRPSWVPRP, for which the “shrunken log2 fold change” value stood at 0.0183. On to RRIRIRPPRLPRPRPRPNLFPRP, for which the “shrunken log2 fold change” value is -0.512. Regarding RRIRPRPPRLPRPRPRPAQRPRP, the “shrunken log2 fold change” value came to 0.104. As for RRIRGRPPRLPRPRPRPTFFPRP, the figure is 0.412; as for RRIRKRPPRLPRPRPRPDYWPRP, 0.0865; as for RRIRIRPPRLPRPRPRPVCGPRP, -0.0405. Take RRIRVRPPRLPRPRPRPDWRPRP: the “shrunken log2 fold change” value was 0.141. To RRIRFRPPRLPRPRPRPHMRPRP belongs -0.0696. RRIRCRPPRLPRPRPRPCKTPRP: the “shrunken log2 fold change” value was -0.0345. On to RRIRKRPPRLPRPRPRPFSWPRP, for which the “shrunken log2 fold change” value is 0.0937. Regarding RRIRYRPPRLPRPRPRPDELPRP, the “shrunken log2 fold change” value amounted to 0.0702.

On to RRIRKRPPRLPRPRPRPFWMPRP, for which the “shrunken log2 fold change” value worked out at 0.0752. Turning to RRIRTRPPRLPRPRPRPDPHPRP, the “shrunken log2 fold change” value was -0.00783.

Turning to RRIRYRPPRLPRPRPRPCINPRP, the “shrunken log2 fold change” value is -0.00114. Consider RRIRCRPPRLPRPRPRPMCHPRP, for which the “shrunken log2 fold change” value is -0.662. For the sequence RRIRGRPPRLPRPRPRPPVVPRP, the “shrunken log2 fold change” value was determined as 1.7. Regarding RRIRWRPPRLPRPRPRPYKCPRP, the “shrunken log2 fold change” value came to 0.0561. Turning to RRIRLRPPRLPRPRPRPNKEPRP, the “shrunken log2 fold change” value amounted to 0.0626. Regarding RRIRSRPPRLPRPRPRPRLMPRP, the “shrunken log2 fold change” value was 0.198. To RRIRKRPPRLPRPRPRPDVIPRP belongs 0.153; to RRIRHRPPRLPRPRPRPNHFPRP, -0.262. As for RRIRTRPPRLPRPRPRPPDDPRP, the figure is 0.408; as for RRIRCRPPRLPRPRPRPDAHPRP, -0.0835. RRIRTRPPRLPRPRPRPNVMPRP: the “shrunken log2 fold change” value turned out to be 0.0814.

RRIRKRPPRLPRPRPRPNTWPRP: the “shrunken log2 fold change” value was 0.0309. To RRIRNRPPRLPRPRPRPWFLPRP belongs -0.0768; to RRIRMRPPRLPRPRPRPNTLPRP, -0.507. RRIRVRPPRLPRPRPRPQRDPRP: the “shrunken log2 fold change” value was -0.171. As for RRIRMRPPRLPRPRPRPVVCPRP, the figure is 0.125; as for RRIRIRPPRLPRPRPRPWSGPRP, -0.139. Consider RRIRIRPPRLPRPRPRPQRRPRP, for which the “shrunken log2 fold change” value was determined as 0.19. As for RRIRTRPPRLPRPRPRPDNEPRP, the “shrunken log2 fold change” value was -0.248. As for RRIRVRPPRLPRPRPRPTACPRP, the figure is -0.124; as for RRIRVRPPRLPRPRPRPENPPRP, 0.0444; as for RRIRDRPPRLPRPRPRPEVRPRP, 1.91. For the sequence RRIRSRPPRLPRPRPRPQHFPRP, the “shrunken log2 fold change” value is -0.00646. Consider RRIRGRPPRLPRPRPRPFMPPRP, for which the “shrunken log2 fold change” value is -0.0647.

As for RRIRLRPPRLPRPRPRPEVQPRP, the “shrunken log2 fold change” value was 0.0654. As for RRIRQRPPRLPRPRPRPLEMPRP, the figure is 0.155.

On to RRIRSRPPRLPRPRPRPEGGPRP, for which the “shrunken log2 fold change” value was determined as 0.325. In the case of RRIRTRPPRLPRPRPRPVGCPRP, the “shrunken log2 fold change” value was 0.304.

As to RRIRYRPPRLPRPRPRPRTPPRP, the “shrunken log2 fold change” value is -0.149. For the sequence RRIRGRPPRLPRPRPRPMIGPRP, the “shrunken log2 fold change” value is 0.263.

As to RRIRWRPPRLPRPRPRPGFVPRP, the “shrunken log2 fold change” value came to 0.291. Take RRIRMRPPRLPRPRPRPAVRPRP: the “shrunken log2 fold change” value came to 0.835. For the sequence RRIRPRPPRLPRPRPRPTVNPRP, the “shrunken log2 fold change” value is -0.157.

As for RRIRMRPPRLPRPRPRPLKVPRP, the “shrunken log2 fold change” value worked out at 0.153.

RRIRARPPRLPRPRPRPHYIPRP: the “shrunken log2 fold change” value was -0.296. For RRIRQRPPRLPRPRPRPRIMPRP, the “shrunken log2 fold change” value is -0.0396. As for RRIRFRPPRLPRPRPRPFSTPRP, the “shrunken log2 fold change” value was -0.0736. On to RRIRVRPPRLPRPRPRPWGIPRP, for which the “shrunken log2 fold change” value is -0.265. Take RRIRYRPPRLPRPRPRPVNDPRP: the “shrunken log2 fold change” value is -0.24. Take RRIRNRPPRLPRPRPRPTQYPRP: the “shrunken log2 fold change” value is 0.095. To RRIRQRPPRLPRPRPRPEHRPRP belongs -0.271; to RRIRIRPPRLPRPRPRPNMFPRP, -0.394. Regarding RRIRTRPPRLPRPRPRPEHIPRP, the “shrunken log2 fold change” value was -0.223. As to RRIRTRPPRLPRPRPRPTKAPRP, the “shrunken log2 fold change” value was 0.249. For the sequence RRIRFRPPRLPRPRPRPMKPPRP, the “shrunken log2 fold change” value was -0.0229. To RRIRRRPPRLPRPRPRPRATPRP belongs 0.162. To RRIRIRPPRLPRPRPRPMWGPRP belongs -0.196. Turning to RRIRNRPPRLPRPRPRPRNEPRP, the “shrunken log2 fold change” value amounted to 0.121. As for RRIRIRPPRLPRPRPRPDGIPRP, the “shrunken log2 fold change” value was -0.0104.

Turning to RRIRPRPPRLPRPRPRPAYFPRP, the “shrunken log2 fold change” value was -0.16. As to RRIRHRPPRLPRPRPRPDHEPRP, the “shrunken log2 fold change” value was -0.018. As for RRIRWRPPRLPRPRPRPHYTPRP, the figure is -0.638. Consider RRIRNRPPRLPRPRPRPCGAPRP, for which the “shrunken log2 fold change” value amounted to 0.144. Take RRIRHRPPRLPRPRPRPYITPRP: the “shrunken log2 fold change” value was -1.23. For the sequence RRIRIRPPRLPRPRPRPSHIPRP, the “shrunken log2 fold change” value was -0.879. As to RRIRHRPPRLPRPRPRPPAGPRP, the “shrunken log2 fold change” value is 0.344. RRIRARPPRLPRPRPRPAGDPRP: the “shrunken log2 fold change” value was 1.01. As for RRIRCRPPRLPRPRPRPTKYPRP, the figure is -0.192; as for RRIRTRPPRLPRPRPRPTTIPRP, -0.111.

With RRIRLRPPRLPRPRPRPWTDPRP, the “shrunken log2 fold change” value was -0.279.

In the case of RRIRHRPPRLPRPRPRPISNPRP, the “shrunken log2 fold change” value is -0.779.

As for RRIRFRPPRLPRPRPRPSYEPRP, the “shrunken log2 fold change” value was determined as 1.66. As for RRIRCRPPRLPRPRPRPPEVPRP, the “shrunken log2 fold change” value was found to be 0.124. To RRIRHRPPRLPRPRPRPGKYPRP belongs -0.0822; to RRIRYRPPRLPRPRPRPAGSPRP, 0.0105; to RRIRYRPPRLPRPRPRPLQAPRP, -0.057. For RRIRFRPPRLPRPRPRPSMGPRP, the “shrunken log2 fold change” value was -0.648. On to RRIRSRPPRLPRPRPRPVWNPRP, for which the “shrunken log2 fold change” value is -0.372. As for RRIRGRPPRLPRPRPRPLNSPRP, the figure is 0.181; as for RRIRPRPPRLPRPRPRPHGPPRP, 0.0292; as for RRIRVRPPRLPRPRPRPHWQPRP, -0.024. RRIRARPPRLPRPRPRPFPMPRP: the “shrunken log2 fold change” value worked out at 0.335. In the case of RRIRLRPPRLPRPRPRPWHWPRP, the “shrunken log2 fold change” value was found to be 0.019.

Consider RRIRARPPRLPRPRPRPTCDPRP, for which the “shrunken log2 fold change” value was 0.534. With RRIRVRPPRLPRPRPRPWMSPRP, the “shrunken log2 fold change” value was -0.076. For RRIRVRPPRLPRPRPRPHGKPRP, the “shrunken log2 fold change” value was -0.389. Take RRIRDRPPRLPRPRPRPYGNPRP: the “shrunken log2 fold change” value was -0.117. Take RRIRVRPPRLPRPRPRPWNFPRP: the “shrunken log2 fold change” value is -0.102. In the case of RRIRVRPPRLPRPRPRPNLPPRP, the “shrunken log2 fold change” value is 0.232. To RRIRARPPRLPRPRPRPHHAPRP belongs 0.0775; to RRIRERPPRLPRPRPRPYYVPRP, -0.559.
